One molecule from patent publication US20230183322A1 (published 2023) can be followed below.

The target of the test is spike protein (Spike, S protein) of SARS-CoV-2 (UniProt P0DTC2 14-1273). In words: SPR.

As usually defined, the Kd is the constant that tells how readily two partners part at equilibrium. Higher therefore signals weaker binding.

B1: antigen-binding unit ABU-174 (antibody, V domains shown)
VH: QVQLQQWGAGLLKPSETLSLTCAVYGGSFSDYYWNWIRRPPGKGLEWIGEITHSGSTNYNPSLKSRVTISVDTSKNQFSLKLSSVTAADTAVYYCARGQGYGRVLLWFGEWGQGTLVTVSS
VL: EIVLTQSPATLSLSPGERATLSCRASQSVSTYLAWYQQKPGQAPRLLIYDASNRATGIPARFSGSGSGTDFTLTISSLEPEDFAVYYCQQRSNWITFGQGTRLEIK
In the case of B1, the affinity, expressed as Kd, was 0.285 nM.
